Experimental findings from patent US20160264669A1 (ARGEN X N V, published 2016) are described below.

For test [1], the target named is T1, murine CD16-2 (Sino Biological Inc., 50036-M27H-B) (murine, UniProt A0A0B4J1G0 21-203, Probably biotinylated on the vendor's tag (catalogue suffix -B); not carried in the letters).
T1 construct: Purchased reagent; Biotinylation is only implied by 'a similar experimental procedure as described above'; also called mCD16-2
T1 sequence: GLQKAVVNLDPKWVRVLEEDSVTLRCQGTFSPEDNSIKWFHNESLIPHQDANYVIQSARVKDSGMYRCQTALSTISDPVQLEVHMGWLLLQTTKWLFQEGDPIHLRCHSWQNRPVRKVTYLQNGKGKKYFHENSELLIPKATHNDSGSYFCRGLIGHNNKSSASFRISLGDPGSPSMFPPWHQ
Nature of the test: ELISA on murine CD16-2, procedure similar to the hCD16a ELISA. The procedure: (§1) Specifically, a Maxisorp plate was coated with 100 ng/well of Neutravidin Biotin-binding Protein (ThermoScientific, 31000) and incubated overnight at 4° C. The following day, the plate was blocked with PBS+1% casein for 2 hours at room temperature. […] Binding to hCD16a was detected using an HRP-conjugated polyclonal goat anti-human Fc antibody (Jackson ImmunoResearch, 109-035-008) (incubation 1 hour at RT, dilution 1/50,000 in PBS+0.1% casein), followed by addition of 100 μl room temperature-equilibrated TMB (SDT-reagents #s TMB). Plates were incubated for 10 minutes prior to addition of 100 μl 0.5N H₂SO₄ and OD450 nm measurement. EC50 values were determined using GraphPad Prism software.
Using a similar experimental procedure as described above, the binding affinity for murine CD16-2 (Sino Biological Inc., 50036-M27H-B) was determined.
Background: In an ELISA, binding on a coated surface is turned into a signal by an enzyme label.

Test [2] has as its target T2, biotinylated hCD16a (Sino Biological Inc., 10389-H27H1-B) (human, UniProt P08637 17-208, biotinylated (site not stated)).
T2 construct: Purchased reagent; also called human CD16a
Nature of the test: ELISA; biotinylated hCD16a captured on neutravidin plate; reference is fucosylated Fc-Abdeg. The procedure: as §1

For test [3], the target named is T2, biotinylated hCD16a (Sino Biological …). Description: ELISA; biotinylated hCD16a captured on neutravidin plate, anti-human Fc-HRP detection. The procedure: as §1

Bounds are passed on as bounds.

T2 sequence (P08637 17-208 limits assumed): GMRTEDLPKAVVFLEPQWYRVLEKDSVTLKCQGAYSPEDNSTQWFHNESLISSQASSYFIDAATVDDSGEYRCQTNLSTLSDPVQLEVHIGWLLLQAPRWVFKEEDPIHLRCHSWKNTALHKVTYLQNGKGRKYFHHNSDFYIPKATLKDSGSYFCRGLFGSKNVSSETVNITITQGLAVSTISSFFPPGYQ

B1: Fc-Abdeg-POT (other)
chain: DKTHTCPPCPAPELLGGPSVFLFPPKPKDTLYITREPEVTCVVVDVSHEDPEVKFNWYVDGVEVHNAKTKPREEQYNSTYRVVSVLTVLHQDWLNGKEYKCKVSNKALPAPIEKTISKAKGQPREPQVYTLPPSRDELTKNQVSLTCLVKGFYPSDIAVEWESNGQPENNYKTTPPVLDSDGSFFLYSKLTVDKSRWQQGNVFSCSVMHEALKFHYTQKSLSLSPGK
modifications: afucosylated (defucosylated) N-linked glycan
notes: also called afucosylated form of Fc-Abdeg; afucosylated variant
The EC50 is the concentration that produces a half-maximal response. Read a low EC50 as greater potency. In the case of B1, the EC50 in test [1] worked out at 11 nM; in test [3], 13 nM. Further, in test [2], the “fold increase in affinity vs Fc-Abdeg” value was more than 30 fold.

B2: Fc-Abdeg (other)
chain: DKTHTCPPCPAPELLGGPSVFLFPPKPKDTLYITREPEVTCVVVDVSHEDPEVKFNWYVDGVEVHNAKTKPREEQYNSTYRVVSVLTVLHQDWLNGKEYKCKVSNKALPAPIEKTISKAKGQPREPQVYTLPPSRDELTKNQVSLTCLVKGFYPSDIAVEWESNGQPENNYKTTPPVLDSDGSFFLYSKLTVDKSRWQQGNVFSCSVMHEALKFHYTQKSLSLSPGK
notes: Isolated variant human IgG Fc region with no variable region; Produced in CHO cells, fucosylated; also called wild-type Fc-Abdeg; fucosylated Fc-Abdeg
B2 yielded an EC50 in test [1] of more than 100 nM.

B3: Fc-Abdeg-S239D/I332E (other)
chain: DKTHTCPPCPAPELLGGPDVFLFPPKPKDTLYITREPEVTCVVVDVSHEDPEVKFNWYVDGVEVHNAKTKPREEQYNSTYRVVSVLTVLHQDWLNGKEYKCKVSNKALPAPEEKTISKAKGQPREPQVYTLPPSRDELTKNQVSLTCLVKGFYPSDIAVEWESNGQPENNYKTTPPVLDSDGSFFLYSKLTVDKSRWQQGNVFSCSVMHEALKFHYTQKSLSLSPGK
notes: also called Fc-Abdeg-S239D/I332E variant
In test [3], B3 gave an EC50 of 6 nM.
